B1: full-length mouse serum-derived FH (natural protein, UniProt P06909 19-1234, looked up)
chain: EDCKGPPPRENSEILSGSWSEQLYPEGTQATYKCRPGYRTLGTIVKVCKNGKWVASNPSRICRKKPCGHPGDTPFGSFRLAVGSQFEFGAKVVYTCDDGYQLLGEIDYRECGADGWINDIPLCEVVKCLPVTELENGRIVSGAAETDQEYYFGQVVRFECNSGFKIEGHKEIHCSENGLWSNEKPRCVEILCTPPRVENGDGINVKPVYKENERYHYKCKHGYVPKERGDAVCTGSGWSSQPFCEEKRCSPPYILNGIYTPHRIIHRSDDEIRYECNYGFYPVTGSTVSKCTPTGWIPVPRCTLKPCEFPQFKYGRLYYEESLRPNFPVSIGNKYSYKCDNGFSPPSGYSWDYLRCTAQGWEPEVPCVRKCVFHYVENGDSAYWEKVYVQGQSLKVQCYNGYSLQNGQDTMTCTENGWSPPPKCIRIKTCSASDIHIDNGFLSESSSIYALNRETSYRCKQGYVTNTGEISGSITCLQNGWSPQPSCIKSCDMPVFENSITKNTRTWFKLNDKLDYECLVGFENEYKHTKGSITCTYYGWSDTPSCYERECSVPTLDRKLVVSPRKEKYRVGDLLEFSCHSGHRVGPDSVQCYHFGWSPGFPTCKGQVASCAPPLEILNGEINGAKKVEYSHGEVVKYDCKPRFLLKGPNKIQCVDGNWTTLPVCIEEERTCGDIPELEHGSAKCSVPPYHHGDSVEFICEENFTMIGHGSVSCISGKWTQLPKCVATDQLEKCRVLKSTGIEAIKPKLTEFTHNSTMDYKCRDKQEYERSICINGKWDPEPNCTSKTSCPPPPQIPNTQVIETTVKYLDGEKLSVLCQDNYLTQDSEEMVCKDGRWQSLPRCIEKIPCSQPPTIEHGSINLPRSSEERRDSIESSSHEHGTTFSYVCDDGFRIPEENRITCYMGKWSTPPRCVGLPCGPPPSIPLGTVSLELESYQHGEEVTYHCSTGFGIDGPAFIICEGGKWSDPPKCIKTDCDVLPTVKNAIIRGKSKKSYRTGEQVTFRCQSPYQMNGSDTVTCVNSRWIGQPVCKDNSCVDPPHVPNATIVTRTKNKYLHGDRVRYECNKPLELFGQVEVMCENGIWTEKPKCRDSTGKCGPPPPIDNGDITSLSLPVYEPLSSVEYQCQKYYLLKGKKTITCRNGKWSEPPTCLHACVIPENIMESHNIILKWRHTEKIYSHSGEDIEFGCKYGYYKARDSPPFRTKCINGTINYPTCV
notes: mouse complement factor H, full length, from serum; also called murine FH; mouse FH
B2: murine C3b Asn1115 (complex)
chain 1: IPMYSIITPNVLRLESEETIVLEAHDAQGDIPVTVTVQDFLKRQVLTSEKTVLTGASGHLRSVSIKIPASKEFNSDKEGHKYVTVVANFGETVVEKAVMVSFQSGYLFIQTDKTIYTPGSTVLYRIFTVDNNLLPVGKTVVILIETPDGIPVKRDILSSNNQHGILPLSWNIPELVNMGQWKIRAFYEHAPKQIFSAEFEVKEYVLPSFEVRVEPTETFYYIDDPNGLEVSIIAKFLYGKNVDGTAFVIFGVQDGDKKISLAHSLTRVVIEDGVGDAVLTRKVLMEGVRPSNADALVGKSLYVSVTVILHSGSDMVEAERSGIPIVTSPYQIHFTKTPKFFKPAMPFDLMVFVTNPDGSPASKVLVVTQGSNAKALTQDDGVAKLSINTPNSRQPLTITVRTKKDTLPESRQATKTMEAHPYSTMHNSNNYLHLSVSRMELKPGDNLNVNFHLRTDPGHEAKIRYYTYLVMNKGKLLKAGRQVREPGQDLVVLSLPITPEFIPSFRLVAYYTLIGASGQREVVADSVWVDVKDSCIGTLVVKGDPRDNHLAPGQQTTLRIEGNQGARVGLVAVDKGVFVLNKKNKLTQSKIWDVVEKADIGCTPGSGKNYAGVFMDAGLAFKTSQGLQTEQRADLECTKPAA
chain 2: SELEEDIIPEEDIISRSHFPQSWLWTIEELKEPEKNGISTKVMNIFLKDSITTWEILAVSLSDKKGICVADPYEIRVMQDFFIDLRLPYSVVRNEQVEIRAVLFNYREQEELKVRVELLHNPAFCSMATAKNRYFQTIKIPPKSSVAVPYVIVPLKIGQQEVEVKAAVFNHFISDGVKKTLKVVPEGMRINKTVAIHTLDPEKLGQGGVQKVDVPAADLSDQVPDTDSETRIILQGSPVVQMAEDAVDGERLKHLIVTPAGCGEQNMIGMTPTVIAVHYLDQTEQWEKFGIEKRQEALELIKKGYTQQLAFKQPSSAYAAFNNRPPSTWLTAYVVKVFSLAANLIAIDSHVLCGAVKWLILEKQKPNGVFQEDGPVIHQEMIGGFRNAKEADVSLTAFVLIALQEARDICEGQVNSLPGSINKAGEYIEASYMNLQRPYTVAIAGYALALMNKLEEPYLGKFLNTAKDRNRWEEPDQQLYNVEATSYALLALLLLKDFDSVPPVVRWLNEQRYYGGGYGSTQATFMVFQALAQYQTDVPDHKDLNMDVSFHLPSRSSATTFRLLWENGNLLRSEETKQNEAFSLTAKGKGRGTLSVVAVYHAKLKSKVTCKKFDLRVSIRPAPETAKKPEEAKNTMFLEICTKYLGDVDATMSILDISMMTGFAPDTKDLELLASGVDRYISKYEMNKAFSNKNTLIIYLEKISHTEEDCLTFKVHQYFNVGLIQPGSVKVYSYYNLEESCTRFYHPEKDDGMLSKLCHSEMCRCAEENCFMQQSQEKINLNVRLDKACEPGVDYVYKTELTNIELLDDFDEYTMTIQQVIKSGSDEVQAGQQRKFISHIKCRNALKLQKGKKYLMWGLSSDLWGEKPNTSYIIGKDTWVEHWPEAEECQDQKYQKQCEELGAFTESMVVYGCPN
modifications: C3b made from plasma-purified C3 by factor B/factor D cleavage (C3a released); beta and alpha' chains disulfide-linked; thioester (Cys1010-Gln1013) hydrolysed; N-glycosylated; amine-coupled to CM5 …

Experiments:
Test in all cases: SPR; BIAcore S200; murine C3b (WT or Asn1115) amine coupled to a CM5 chip (930 ± 10 RU); analytes in 2-fold dilution series in HBST (10 mM HEPES, 150 mM NaCl, 0.005% Tween-20, pH 7.4), 30 μl/min for 200 s; steady-state model
Settings in all cases: both partners purified
[1] = target: B2
[2] = target: T1, recombinant murine FH SCRs 1–5 (mouse)
T1 construct: mouse complement factor H, short consensus repeats 1–5; also called recombinant mouse FH1–5; mFH SCRs 1–5; source: recombinant

[3] = target: T2, recombinant murine Crry SCRs 1–5 (mouse)
T2 construct: mouse Crry (complement receptor 1-related protein), short consensus repeats 1–5; also called recombinant mouse Crry; mouse Crry; source: recombinant
T2 sequence (P01027 749-1663, change not shown, chain 1 of 2): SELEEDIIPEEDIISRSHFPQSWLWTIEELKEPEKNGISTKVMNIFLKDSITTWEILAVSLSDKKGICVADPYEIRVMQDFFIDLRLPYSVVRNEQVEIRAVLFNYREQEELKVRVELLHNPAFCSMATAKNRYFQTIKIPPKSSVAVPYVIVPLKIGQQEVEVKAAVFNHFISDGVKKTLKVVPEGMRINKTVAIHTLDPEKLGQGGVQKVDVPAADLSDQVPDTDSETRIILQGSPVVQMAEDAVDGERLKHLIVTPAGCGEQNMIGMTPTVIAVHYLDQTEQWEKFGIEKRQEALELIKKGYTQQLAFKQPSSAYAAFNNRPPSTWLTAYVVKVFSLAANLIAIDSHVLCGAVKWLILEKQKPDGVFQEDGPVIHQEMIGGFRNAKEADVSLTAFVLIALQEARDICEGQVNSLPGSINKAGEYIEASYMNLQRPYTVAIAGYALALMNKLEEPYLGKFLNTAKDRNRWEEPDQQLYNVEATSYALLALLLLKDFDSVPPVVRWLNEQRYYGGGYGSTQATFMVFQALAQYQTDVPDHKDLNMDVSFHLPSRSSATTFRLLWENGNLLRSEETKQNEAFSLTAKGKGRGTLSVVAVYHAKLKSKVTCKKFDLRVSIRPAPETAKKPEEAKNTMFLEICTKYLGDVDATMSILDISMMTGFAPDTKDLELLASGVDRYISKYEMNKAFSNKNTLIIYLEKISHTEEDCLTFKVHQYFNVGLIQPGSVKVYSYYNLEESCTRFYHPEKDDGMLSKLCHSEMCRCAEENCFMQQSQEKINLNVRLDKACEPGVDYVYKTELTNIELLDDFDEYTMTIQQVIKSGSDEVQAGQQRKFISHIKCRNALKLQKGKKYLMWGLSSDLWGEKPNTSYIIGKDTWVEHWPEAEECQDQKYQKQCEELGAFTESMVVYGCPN
T2 sequence (P01027 749-1663 D1115N, chain 2 of 2): as the sequence (P01027 749-1663, change not shown, chain 1 of 2) above, with D367N counted along it

Row | Binder | Kd [1] | Kd [2] | Kd [3]
1 | B1 | 3.7 µM |  | 
2 | B2 |  | 3.1 µM | 3.5 µM
